IntAct's records for PubMed 36127429

B1: Protein SHMOOSE (Homo sapiens), C0HM83 (parent)
chain: MPPCLTTWLSQLLKDNSYPLVLGPKNFGATPNKSNNHAHYYNHPNPDFPNSPHPYHPR
partner: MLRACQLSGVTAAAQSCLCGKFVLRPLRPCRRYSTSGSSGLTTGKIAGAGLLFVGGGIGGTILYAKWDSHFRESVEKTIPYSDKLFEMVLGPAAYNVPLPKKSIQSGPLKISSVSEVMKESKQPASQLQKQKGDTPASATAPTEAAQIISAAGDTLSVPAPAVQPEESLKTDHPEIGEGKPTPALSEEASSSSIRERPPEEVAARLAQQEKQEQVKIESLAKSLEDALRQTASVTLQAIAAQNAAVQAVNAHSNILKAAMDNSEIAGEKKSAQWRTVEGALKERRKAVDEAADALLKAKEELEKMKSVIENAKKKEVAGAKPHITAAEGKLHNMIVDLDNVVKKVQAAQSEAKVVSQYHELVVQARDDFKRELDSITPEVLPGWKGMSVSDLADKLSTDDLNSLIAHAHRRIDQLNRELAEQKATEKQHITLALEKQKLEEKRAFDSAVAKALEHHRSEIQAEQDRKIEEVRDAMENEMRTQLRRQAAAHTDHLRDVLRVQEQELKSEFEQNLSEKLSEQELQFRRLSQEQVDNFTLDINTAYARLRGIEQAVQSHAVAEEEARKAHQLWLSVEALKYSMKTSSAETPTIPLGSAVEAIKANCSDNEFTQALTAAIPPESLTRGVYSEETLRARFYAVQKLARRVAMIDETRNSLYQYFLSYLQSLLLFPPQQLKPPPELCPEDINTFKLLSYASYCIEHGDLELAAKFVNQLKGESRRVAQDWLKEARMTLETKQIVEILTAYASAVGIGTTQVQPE

Variants of: B1
Details: with mic60_human IMMT

| effect of a mutation on the interaction | Variant |
| --- | --- |
| with no effect | D47N |
